Target: T1, Recombinant CD71-ECD immobilised on the CM5 chip (SPR) (human, UniProt P02786 89-760)
T1 construct: Human transferrin receptor protein 1 (CD71), extracellular domain; source: recombinant
Test: SPR; BIAcore S200; CD71-ECD coupled to CM5 chip (EDC/NHS, 10 mM NaAc pH 4.5); analyte PvMSP1P-19 6.25, 12.5, 25, 50 μM at 30 μl/min; 1:1 Langmuir model; apparent KD
Settings: both partners purified

T1 sequence (P02786 89-760): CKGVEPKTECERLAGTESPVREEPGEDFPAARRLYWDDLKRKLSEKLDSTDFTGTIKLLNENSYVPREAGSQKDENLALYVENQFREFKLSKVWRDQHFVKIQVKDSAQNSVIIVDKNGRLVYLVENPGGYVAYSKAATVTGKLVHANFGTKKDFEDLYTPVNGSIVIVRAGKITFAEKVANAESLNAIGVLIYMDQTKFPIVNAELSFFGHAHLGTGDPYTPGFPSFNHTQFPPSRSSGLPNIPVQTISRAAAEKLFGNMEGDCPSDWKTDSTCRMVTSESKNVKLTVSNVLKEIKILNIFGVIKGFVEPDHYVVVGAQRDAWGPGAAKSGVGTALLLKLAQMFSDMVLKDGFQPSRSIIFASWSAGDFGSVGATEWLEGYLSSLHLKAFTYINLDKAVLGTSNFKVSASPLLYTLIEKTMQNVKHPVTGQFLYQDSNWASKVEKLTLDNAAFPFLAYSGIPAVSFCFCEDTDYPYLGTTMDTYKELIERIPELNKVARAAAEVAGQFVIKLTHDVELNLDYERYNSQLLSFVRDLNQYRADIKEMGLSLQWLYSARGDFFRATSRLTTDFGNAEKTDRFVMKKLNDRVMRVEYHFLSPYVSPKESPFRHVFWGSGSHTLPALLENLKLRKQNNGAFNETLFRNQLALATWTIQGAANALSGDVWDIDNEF

B1: Plasmodium vivax merozoite surface protein 1 paralog, 19-kDa C-terminal region (PvMSP1P-19), Trx-His-Flag-tagged (domain or fragment)
chain: DRVEKNCRNRKCPLNSFCFIQTINEECLCLLNYSMVGEKCILNEQNSCAVKNGGCDLKATCELKKNRVNCICPKGTKPMHEGVVCS
notes: P. vivax merozoite surface protein 1 paralog (PvMSP1P, 1854 aa), PlasmoDB PVX_099975, aa 1749-1834 (two EGF-like domains); Migrates at ~36 kDa; also called Trx-His-PvMSP1P-19; His-MSP1P-19; source: E. coli BL21 (DE3) and SHuffle T7 E. coli, pET32a, soluble, purified by Talen Biotech
For B1, the Kd was 35.5 µM.

From publication PMC11107369, “The Plasmodium vivax MSP1P-19 is involved in binding of reticulocytes through interactions with the membrane proteins band3 and CD71” (The Journal of Biological Chemistry, 2024)
